In patent US20150018409A1, “CHIMERIC POLYPEPTIDES AND THEIR USE” (ADRIACELL S.P.A., priority 2003, published 2015):

Experiments:
U2OS cells [1] = assay: FACS analysis of DNA content / cell cycle distribution; type: cell-based, human; conditions: for cells in G2 phase: control 20%
Procedure: The distribution of the various phases of the cell cycle of the protein transduced cells was analysed by FACS analysis. Distribution of the DNA content of the cell populations was detected. 2n represents a diploid DNA equivalent (non replicated; G1 phase), 4n represents the tetraploid DNA equivalent (replicated; G2/M phase). For the FACS analysis the cells were separated employing the DDM mode that allows to estimate DNA content of a single cell. U2OS cells were grown for 24 hours (upper row) or 48 hours (lower row) in the presence of increasing amounts of […] (10 nM, 50 nM, 100 nM) as indicated and with only one addition of proteins; non treated cells (control); cells treated with a nuclease impaired derivative of […] (SC34, 100 nM). All the histograms shown represent a measure of DNA content relative to the cell numbers as indicated only on the upper right panel.
U2OS cells were incubated with […] (10 nM, panel B), or with H2O2 (10 μM, panelC), or both ([…], 10 nM; H2O2, 10 μM; panel D), or with no agent as a control (panel A). Further treatment cells were analysed in FACS for DNA content; the percentage of the various cell cycle phases are indicated at the bottoms of the individual histograms.
Finally, to confirm that the DSB's that are produced in vivo also induce perturbations in the cell cycle, DNA content in the various phases of the cell cycle was analysed by Fluorescence Activated Cell Sorting (FACS) after transduction of the proteins of the invention. After the treatment with diverse proteins at various concentrations and during different timepoints, the cells were fixed in 70% ethanol, treated with RNAse A and stained with propidium […].
The FACS analysis was done using a FACSCalibur™ (Becton Dickinson) apparatus. The obtained data were evaluated with the CellQuest™ software program package. At least 3×10^4 single events for every sample were analysed in the DDM mode. The statistic analysis of the DNA content distribution during the cell cycle was done with the MODFIT LT™ software program package. A 2N diploid DNA content correspond to cells in the G1 phase of the cell cycle, 4N represents a relative tetraploid DNA content and corresponds to G2 and/or M phase of the cell cycle. An intermediate DNA content represents S phase corresponding to a population actively replicating DNA during the cell cycle and a content that is below diploid 2N represents cells in apoptosis.
U2OS cells were incubated with 10 nM […] and with 10 μM H2O2 alone or in combination ant the cell cycle profile was analysed by FACS.

[2] = test system: p53 positive or negative cells; assay: Cell cycle response to DSB's by FACS in p53 positive or negative cells; type: cell-based
Procedure: The cell cycle response to DSB's induced by […] treatment were analysed in p53 positive or negative cells. […] Incubation for 36 hours of the cell lines mutated for ATM (AT-5) with […] results in a transient retardation of the cell cycle, as was determined by a DNA content FACS analysis. […] A single addition of […] for 60 minutes to the AT-5 cells was sufficient to induce cell cycle stop after 24 hours (FIG. 8A) and finally leads to cell death, obtained from not correctly ligated DNA, and consequently, the clonogenic activity after a single treatment with […] for 60 minutes was below 0.02% for AT-5 cells. […] In addition, the cells were incubated with adriamycin as a control.

V3 (DNA-PKcs−/−) cells = assay: Clonogenic assay of CHO cells mutated in NHEJ; type: cell-based, rodent; conditions: 100 nM, 24 hours, grown 7-10 days (FIG. 9 black bar)
Procedure: Clonogenic assay of CHO cells that were mutated for proteins involved in the NHEJ repair-pathway treated with [sequence]. The cell lines used are AA8 (parental line), V3 (DNA-PCCS^(−/−)), xrss5 (KU80^(−/−)) and XR-1 (XRCC4^(−/−)), HIS P1.13-11 (KU70^(−/−)) and the corresponding parental cell line CHO-K1. Various dilutions of the CHO cells containing the NHEJ mutations as indicated were treated for 24 hours with [sequence] (25 nM, grey bars; 100 nM, black bars) or not treated (white bars); the cells were washed and then grown for 7-10 days, stained with GIEMSA and colonies were counted.
Moreover these NHEJ mutant cells were tested with [sequence] in clonogenic, colony-outgrowth assays that were assayed after a single addition of [sequence] for 12 hours at a concentration of 10 nM (grey bars) or at a concentration of 75 nM (black bars) or without protein treatment (not treated, white bars). Seven to ten days after addition, cell growth was analysed by staining with GIEMSA-blue and quantification of diverse cell-concentrations. […] The multiwell-microtiter-plates (for an example see FIG. 13A) were scanned using the VersaDOC® (BioRad) imaging system and growth was automatically quantified with the software package Quantify One® for the analysis of the microtiter-plates (microtiter-plates scanning software).

[3] = test system: MO59J (DNA-PKcs−/−) glioblastoma cells compared to MO59K; assay: Colony forming assay with automatic analysis (VersaDoc); type: cell-based, human; design: dose or concentration left out as unconfirmed; conditions: single treatment for 12 hours
Source text: Statistical analysis of the results was done and is represented as a histogram. […] An example of the colony forming assay is shown. The assay was done employing various concentrations of cells in the order of three magnitudes (from the upper to the lower rows, 1×10^4, 2×10^3, 4×10^2, 8×10). On the right B), the histograms of the results from the colony forming assay of the cell-lines MO59J compared to MO59K is shown. The assays were done as in FIG. 9 but analysed with the aid of the Versadoc 4 (BioRad) system. […]

U2OS cells [4] = assay: Histone H2AX Ser139 phosphorylation, single cell fluorescence microscopy; type: cell-based, human; conditions: 100 nM, 60 minutes
Procedure: U2OS cells were treated with [sequence] (100 nM, central column) for 60 minutes, in addition treatment was done with Wortmanin (50 μM, WM, right column), or with no agent as a control (left column). After treatment cells were stained with specific antibodies to H2AX-Ser-139 phosphorylated (red) or for Histone 2B (served as a control, green) and analysed on a single cell level by fluorescence microscopy.
As another example for a phosphorylation of a substrate of ATM in response to the object of the invention, histone H2AX Ser^139 phosphorylation was analysed. […] U2OS cells were treated for 60 minutes with [sequence], fixed and analysed for histone H2AX Ser^139 phosphorylation. Cells were analysed with a specific antiserum to phospho-Ser 139 on histone H2AX and analysed in the microscope on a single cell basis. As a control histone 2B was analysed.

[5] = test system: neuroblastoma cells G1-LIN; assay: Apoptosis by FACS analysis of DNA content (below 2N); type: cell-based; conditions: 30 hours
Procedure: FACS analysis of the DNA content stained with propidium J^− of the neuroblastoma cells G1-LIN after […] treatment (10 nM, panel C; 100 nM panel B). The treatment of the samples was done for 30 hours. As a control samples treated with SC34 were used (100 nM, panel D) or not treated (panel A). At the bottom of each panel the representative percentage of the cell cycle phase distributions obtained are indicated (G1/S/G2-M). (A) indicates apoptotic cells.

[6] = test system: U2OS osteosarcoma cells and IMR90 primary fibroblasts; assay: Protein transduction of the chimeric proteins (immunoblot and immunofluorescence with PvuII antibody); type: cell-based, human
Procedure: For a comparison aliquots of the supernatants of the cell culture taken before extract preparation were included in the analysis (upper panel, SUPERNATANT).
In addition DNA costaining was obtained with propidium J after RNAse A digest (red, upper panel).
The transduction capacity of the chimeric proteins was assayed in U2OS osteosarcoma cells and in the IMR90 primary fibroblasts cells. The cells were grown in DMEM containing 10% FCS and treated with the proteins of the invention in the same medium, in general in the presence of antibiotics. After 10 minutes of incubation of the cells with increasing quantities of the fusion protein […] (1, 10, 50, 100, 200 nM) and with the protein SCPVU (single chain PvuII without TAT) and SC34 as a control (prepared as described for […] except that the enzyme PvuII contains a mutant in position 34) cell extracts were prepared, separated on SDS-PAGE and assayed by immuno-blot analysis with a monospecific antibody to PvuII. Further, uptake was assayed after 30 min of incubation by immuno-fluorescence analysis using PvuII specific antibodies and nuclear costaining with propidium iodide.

B1: SCPVUTAT: single chain PvuII endonuclease (aa 1-157, GSGG linker, aa 2-157) fused to HIV Tat peptide and six histidine tag; SEQ ID NO:2 (protein, listed as Proteus vulgaris)
chain: MSHPDLNKLLELWPHIQEYQDLALKHGINDIFQDNGGKLLQVLLITGLTVLPGREGNDAVDNAGQEYELKSINIDLTKGFSTHHHMNPVIIAKYRQVPWIFAIYRGIAIEAIYRLEPKDLEFYYDKWERKWYSDGHKDINNPKIPVKYVMEHGTKIYGSGGSHPDLNKLLELWPHIQEYQDLALKHGINDIFQDNGGKLLQVLLITGLTVLPGREGNDAVDNAGQEYELKSINIDLTKGFSTHHHMNPVIIAKYRQVPWIFAIYRGIAIEAIYRLEPKDLEFYYDKWERKWYSDGHKDINNPKIPVKYVMEHGTKIYGSYGRKKRRQRRRGGSHHHHHH
U2OS cells [1]; 10 nM SCPVUTAT alone
  cells in G2 phase: 28%
U2OS cells [1]; 10 nM SCPVUTAT in combination with 10 μM H2O2
  cells in G2 phase: 45%
U2OS cells [1]; 10 nM, incubation for 24 hours
  change of cell cycle distribution (DNA content): increase in the teraploid population
[2]; cells negative for p53
  cell cycle response: do not exhibit arrest characteristics of the cell cycle
[2]; cells positive for p53
  cell cycle response: cell cycle arrest behaviour in G1 and G2 with low S-phase values
V3 (DNA-PKcs−/−) cells
  colonies relative to non treated cells (100%): below 1%
[3]
  sensitivity in colony forming assay versus parental MO59K: significant differential increase in sensibility
U2OS cells [4]
  histone H2AX Ser139 phosphorylation: rapidly induces histone H2AX Ser^139 phosphorylation
[5]; 10 nM
  apoptotic cells: 18%
[5]; 100 nM
  apoptotic cells: more than 29%
[6]; 1-200 nM SCPVUTAT, controls 200 nM, 10 min incubation, immunoblot with PvuII antibody
  import / enrichment in the cells: enriched in the cells and in particular in the nucleus
[6]; protein added to culture medium (DMEM, 10% FCS), immunoblot after 10 min, immunofluorescence after 30 min
  uptake, share of the cells analysed: ~100%
